# Numbering of substitutions follows the chain as printed.
# B1: PRT-87 (protein)
# chain: MANQEIRYSEVTPYHITSVWTKGVTPPEQFTQGEDVFHAPYIANQGWYDITKTFNGKDNLLCGAATAGNMLHWWFDQNKEEIERYLKKYPEKQKIMFGDQELLDVRKVINTKDSQTNSKLFEYFRDKAFPNLSARRLGVMPDLVLDMFINGYYLSVTKTQTTDVNRTYGNKDNRGGIFDAVFTRGDQSKLLTNRHDFKEKNLKEISQLIKQELQEGKALALSHTYANVRINHVINLWGADFDSEGNLKAIYVTDSDSNASIGMKKYFVGVNSSGKVAISAKEIEEDNIGAQVLGLFTLSTGQDIWEQTN
# B2: PRT-88 (protein)
# chain: MANQEIRYSEVTPYHVTSVWTKGVTPPAKFTQGEDVFHAPYVANQGWYDITKTFNGKDDLLCGAATAGNMLHWWFDQNKEKIEAYLKKHPEKQKIMFGDQELLDVRKVINTKGDQTNSELFNYFRDKAFPGLSARRLGVMPDLVLDMFINGYYLNVYKTQTTDVNRTYQEKDRRGGIFDAVFTRGDQSKLLTSRHDFKEKNLKEISDLIKKELTEGKALGLSHTYANVRINHVINLWGADFDSNGNLKAIYVTDSDSNASIGMKKYFVGVNSAGKVAISAKEIKEDNIGAQVLGLFTLSTGQDIWNQTN
# B3: PRT-89 (protein)
# chain: B2 chain with G113D
# B4: PRT-90 (protein)
# chain: B2 chain with V11E, G113D, N201T
# B5: PRT-91 (protein)
# chain: B2 chain with V11E, V16I, G113D, G131N, Y157G, R173K, K211Q, K284E
# B6: PRT-92 (protein)
# chain: B2 chain with H15T, V16I, K29D, V108A, G113D, G131N, R173K, K211Q, N244E
# B7: PRT-93 (protein)
# chain: B2 chain with E91D, G113D, L137I, I304S
# B8: PRT-94 (protein)
# chain: B2 chain with V11E, E91D, L137I, N201T, I304S
# B9: PRT-95 (protein)
# chain: B2 chain with V16I, E91D, G131N, L137I, Y157G, R173K, K211Q, K284E, I304S
# B10: PRT-96 (protein)
# chain: B2 chain with H15T, K29D, E91D, V108A, L137I, N244E, I304S
# B11: PRT-97 (protein)
# chain: B2 chain with L137I, I304S
# B12: PRT-98 (protein)
# chain: B2 chain with E91D, I304S
# B13: PRT-99 (protein)
# chain: B2 chain with E91D, L137I
# B14: PRT-100 (protein)
# chain: B2 chain with E91D, G131N, L137I, I304S
# B15: PRT-101 (protein)
# chain: B2 chain with E91D, L137I, R173K, I304S
# B16: PRT-102 (protein)
# chain: B2 chain with E91D, L137I, K211Q, I304S
# B17: PRT-103 (protein)
# chain: B2 chain with E91D, D114S, L137I, I304S
# B18: PRT-104 (protein)
# chain: B2 chain with E91D, L137I, Y157T, I304S
# B19: PRT-105 (protein)
# chain: B2 chain with K81E, E91D, L137I, I304S
# B20: PRT-106 (protein)
# chain: MRNATEAYAKEVPHQITSVWTKGVTPLTPEQFRYNNEDVIHAPYLAHQGWYDITKTFNGKDNLLCGAATAGNMLHWWFDQNKTEIEAYLSKHPEKQKIIFNNQELFDLKAAIDTKDSQTNSQLFNYFRDKAFPNLSARQLGVMPDLVLDMFINGYYLNVFKTQSTDVNRPYQDKDKRGGIFDAVFTRGDQTTLLTARHDLKNKGLNDISTLIKQELTEGRALALSHTYANVSISHVINLWGADFNAEGNLEAIYVTDSDANASIGMKKYFVGINASGKVAISAKKIEGENIGAQVLGLFTLSSGKDIWQKLS
# B21: PRT-107 (protein)
# chain: B20 chain with H47N, T56A, N58D, D173T, L211I, R220K, I273V, S276A, K278H
# B22: PRT-108 (protein)
# chain: B20 chain with L27P, L45T, N58D, S276A, K278H
# B23: PRT-109 (protein)
# chain: B20 chain with Q15T, L45V, N58D, D207E, R220K, A260D, I273V, S276A
# B24: PRT-110 (protein)
# chain: B20 chain with L27P, I40F, L45T, N58D, Q122A, G204T, L211I, A260S, I273V
# B25: PRT-167 (protein)
# chain: MANQEIRYSEVTPYHVTSVWTKGVTPPTDFTQGEDVFHAPYKANQGWYDITKTFNGKDDLLCGAATAGNMLHWWFDQNKDQIKRYLEEHPEKQKINFNGEQMFDVKEAIDTKNSQLDSKLFEYFKEKAFPYLSTKHLGVFPDHVIDMFINGYRLSLTNHGPTPVKEGSKDPRGGIFDAVFTRGDQSKLLTSRHDFKEKNLKEISDLIKKELTEGKALGLSHTYANVRINHVINLWGADFDSNGNLKAIYVTDSDSNASIGMKKYFVGVNSAGKVAISAKEIKEDNIGAQVLGLFTLSTGQDSWNQTN
# B26: PRT-168 (protein)
# chain: B25 chain with T28E
# B27: PRT-169 (protein)
# chain: B25 chain with S114D
# Target: pooled human IgG (human IgG1,2,3 and 4)
Protein,Enzyme Activity Endpoint Assay: Fab′2 [ng/µL],Enzyme Activity Endpoint Assay: Fc [ng/µL],Enzyme Activity Endpoint Assay: IgG [ng/µL],Enzyme Activity Endpoint Assay: scIgG [ng/µL],Enzyme Activity Endpoint Assay: Fab'2 [ng/µL]
B1,0,52,60,50,
B2,48,110,25,0,
B3,45,89,34,0,
B4,44,106,21,0,
B5,40,102,16,9,
B6,40,104,8,6,
B7,38,91,11,0,
B8,547,120,0,0,
B9,242,118,102,0,
B10,482,156,0,0,
B11,524,185,0,0,
B12,592,180,0,0,
B13,489,152,0,0,
B14,513,178,0,0,
B15,655,204,0,0,
B16,607,160,0,0,
B17,544,158,0,0,
B18,259,130,0,0,
B19,663,192,0,13,
B20,739,202,0,0,
B21,553,200,0,117,
B22,666,203,0,0,
B23,457,181,28,0,
B24,575,136,0,0,
B25,,161,0,0,572
B26,,159,0,0,628
B27,,188,0,0,658
